Test results reported in patent US20180334493A1 (Takeda / Millennium, published 2018).

Biological target: T1, C1 esterase (UniProt P09871 16-688, limits assumed)
T1 sequence (looked up): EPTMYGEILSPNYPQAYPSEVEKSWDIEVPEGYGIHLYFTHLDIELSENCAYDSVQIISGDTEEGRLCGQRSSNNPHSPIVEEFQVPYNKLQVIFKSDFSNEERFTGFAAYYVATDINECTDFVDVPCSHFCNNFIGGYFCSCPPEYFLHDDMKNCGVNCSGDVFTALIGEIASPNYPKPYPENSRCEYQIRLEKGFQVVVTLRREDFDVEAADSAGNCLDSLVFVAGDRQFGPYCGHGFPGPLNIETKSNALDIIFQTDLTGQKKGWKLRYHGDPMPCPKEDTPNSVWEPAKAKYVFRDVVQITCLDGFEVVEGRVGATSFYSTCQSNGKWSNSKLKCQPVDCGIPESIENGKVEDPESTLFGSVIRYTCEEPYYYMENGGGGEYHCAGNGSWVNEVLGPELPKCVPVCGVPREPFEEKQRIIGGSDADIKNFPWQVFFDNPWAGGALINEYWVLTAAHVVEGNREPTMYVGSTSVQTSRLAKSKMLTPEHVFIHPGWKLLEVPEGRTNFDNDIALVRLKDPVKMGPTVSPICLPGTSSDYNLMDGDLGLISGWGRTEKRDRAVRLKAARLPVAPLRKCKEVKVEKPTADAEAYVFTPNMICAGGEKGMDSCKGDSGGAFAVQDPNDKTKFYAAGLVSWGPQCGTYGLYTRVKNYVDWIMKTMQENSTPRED
Experiment: cell-based or functional assay

B1: recombinant human C1 esterase inhibitor (rhC1-INH) (other)
chain: NPNATSSSSQDPESLQDRGEGKVATTVISKMLFVEPILEVSSLPTTNSTTNSATKITANTTDEPTTQPTTEPTTQPTIQPTQPTTQLPTDSPTQPTTGSFCPGPVTLCSDLESHSTEAVLGDALVDFSLKLYHAFSAMKKVETNMAFSPFSIASLLTQVLLGAGQNTKTNLESILSYPKDFTCVHQALKGFTTKGVTSVSQIFHSPDLAIRDTFVNASRTLYSSSPRVLSNNSDANLELINTWVAKNTNNKISRLLDSLPSDTRLVLLNAIYLSAKWKTTFDPKKTRMEPFHFKNSVIKVPMMNSKKYPVAHFIDQTLKAKVGQLQLSHNLSLVILVPQNLKHRLEDMEQALSPSVFKAIMEKLEMSKFQPTLLTLPRIKVTTSQDMLSIMEKLEFFDFSYDLNLCGLTEDPDLQVSAMQHQTVLELTETGVEAAAASAISVARTLLVFEVQQPFLFVLWDQQHKFPVFMGRVYDPRA
modifications: heavily N- and O-glycosylated, sialylated (CHO-expressed)
potency relative to the initial development reference standard: 121%
